Data on 17 sequences can be found in the DeepSol protein solubility set.

This series is described as follows: soluble on expression in E. coli; label from the status in PepcDB or PDB records.
Take “SLVCKNALQDLSFLEHLLQVKYAPKTWKEQYLGWDLVQSSVSAQQKLRTQENPSTSFCQQVLADFIGGLNDFHAGVTFFAIESAYLPYTVQKSSDGRFYFVDIMTFSSEIRVGDELLEVDGAPVQDVLATLYGSNHKGTAAEESAALRTLFSRMASLGHKVPSGRTTLKIRRPFGTTREVRVKWRYVPEGVGDLATIAPSIRAPQLQKSMRSFFPKKDDAFHRSSSLFYSPMVPHFWAELRNHYATSGLKSGYNIGSTDGFLPVIGPVIWESEGLFRAYISSVTDGDGKSHKVGFLRIPTYSWQDMEDFDPSGPPPWEEFAKIIQVFSSNTEALIIDQTNNPGGSVLYLYALLSMLTDRPLELPKHRMILTQDEVVDALDWLTLLENVDTNVESRLALGDNMEGYTVDLQVAEYLKSFGRQVLNCWSKGDIELSTPIPLFGFEKIHPHPRVQYSKPICVLINEQDFSCADFFPVVLKDNDRALIVGTRTAGAGGFVFNVQFPNRTGIKTCSLTGSLAVREHGAFIENIGVEPHIDLPFTANDIRYKGYSEYLDKVKKLVCQLINNDGTIILAEDGSFHHHHHH”: the “soluble on expression in E. coli” value was “soluble”.

For “GPGSMQSDFDNVETELRDIEETFTTGRMNAFGSASTQDAFVHELKRIAEIETQVFYRTCALLKSSHTNEHQLVTNMYASAQPPPQSQRSGPATTSPSSNLGDGSFRANSSGLESSMYRGPMNQRSQSSFASTVAGGLSGAPPSNSNIHSSSASRRQSRQGWENVSAGSPFPGVGDGGASSGAAPHIHRSEWGNEDGFADKAFEDVAAHFEELESQFFSLGDYLREISKHVIRLNDMSKQVNNGVNYGANGGVTGAPAAAANANGSSNNTDMLQTVGSMGRQDYPGSFIDPTSIGGGSGYGMDGPHS”, the “soluble on expression in E. coli” value is “soluble”.

Take “MQERILFGTYTKKTSQGIYQGTLDTTAKTLTNDGLLAATQNPTYLALSAKDCLYSVDKEDDEGGIAAWQIDGQTAHKLNTVVAPGTPPAYVAVDEARQLVYSANYHKGTAEVMKIAADGALTLTDTVQHSGHGPRPEQDGSHIHYTDLTPDNRLAVIDLGSDKVYVYNVSDAGQLSEQSVLTMEAGFGPRHLVFSPDGQYAFLAGELSSQIASLKYDAQTGAFTQLGIVKTIPADYTAHNGAAAIRLSHDGHFLYVSNRGYNTLAVFAVTADGHLTLIQQISTEGDFPRDFDLDPTEAFVVVVNQNTDNATLYARDLTSGKLSLLQKDVTVPEGVCVRFLEHHHHHH”: the “soluble on expression in E. coli” value is recorded as “soluble”.

With “MSTPLMQRSLSPQEWQVFQRGDRWTGARLHQPLNLLLIGSKVLTSDLDHPPDPNLTYHALVNSVEGLSDSLLLVRFDPVQQRLVILSIPRDTLTFIPGRGDAKINEANALGGPALAAATVSELLGNVPIDRYLRINVQGIEKLIDALGGVTLDVPIAMRYRDESQHLYIDLQAGRHHLNGQQALQFLRFRYDALGDIGRVQRQQMFLRTLMEQTARPETLARTPHILSIIRENLDTNLTVEELMSLGQFLTRLPRSRVQFLLLPGNFNGTTEEVAVSYWLPNYQRIAWLTDQYFRDTPTADPRETGLPSPAQVRIAIQNTNLPQSLVMRLSEQLATAGYPHPLVAEPLPQPIPITRIIAQQGDLAAARQVQLLLGFGEVRVESTGVLASDVTIQLGDDARDRLQLRRTTSLLEHHHHHH”, the “soluble on expression in E. coli” value is given as “soluble”.

For “MMDSCIRIAGIIGESIVDGPGIRLVVFAQGCPHHCPGCHNPETHAYEGGKSVAIAEILQRLAMNPLLDGITLSGGEPFAQAAGFALLAQSARQRGFHVMTYSGYTYEELTASSEQNPAWALLLEQTDLLVDGPFQLAERNLLLPFRGSENQRVIDVQESLRQGKVVLASVLEHHHHHH”, the “soluble on expression in E. coli” value is reported as “not soluble”.

For “MSLTEAGDSEGEQSYFVSTPDEYPGGHDREDDGSVYGQIHIEEESTIRYSWQDEIAQGTWRRKMRGDVGGEKPVKVLEVPALSLGGAIGSAHLKEEASGELRAEPTVIEKEIKIPHEFHTSIKGVFSSEPRHQLVEVIGQLEETLPERMKEELSALTRQSQGESGSVSVDVKKVQSAAGGSVTLMAEVNLSQTVDADQLDLEQLSRDEAGEIERAVESVVRESLAKRSSPVPRSEGHHHHHH”, the “soluble on expression in E. coli” value was “soluble”.

As to “MGFHLRNSLALPPDTPAVKVQSAVQYSELAKLLRRGLKASGATLADEDAKTGFAQVQVLSERWGDLPIAIDSQGRAQEYSLRYAAIFTVTTANGAVLVPQQVIELSRDYVSPPVDATGTATEREILADELRKDMSASILRRIDSVVRARLKHGESLESTPTAPLPPAPVQPTTLPESSVPAALPPAPTSGNLEHHHHHH”, the “soluble on expression in E. coli” value is recorded as “not soluble”.

“MGSDKIHHHHHHMKTKVAAIYGKRDVRLRVFELPEITDNELLVSVISDSVCLSTWKAALLGSEHKRVPDDLENHPVITGHECAGVIVEVGKNLTGKYKKGQRFVLQPAMGLPSGYSAGYSYEYFGGNATYMIIPEIAINLGCVLPYHGSYFAAASLAEPMCCIIGAYHANYHTTQYVYEHRMGVKPGGNIALLACAGPMGIGAIDYAINGGIQPSRVVVVDIDDKRLAQVQKLLPVELAASKGIELVYVNTKGMSDPVQMLRALTGDAGFDDIFVYAAVPAVVEMADELLAEDGCLNFFAGPTDKNFKVPFNFYNVHYNSTHVVGTSGGSTDDMKEAIALSATGQLQPSFMVTHIGGLDAVPETVLNLPDIPGGKKLIYNGVTMPLTAIADFAEKGKTDPLFKELARLVEETHGIWNEQAEKYLLAQFGVDIGEAAQ”: the “soluble on expression in E. coli” value was “not soluble”.

As for “MATIRDVAKRAGVSVATVSRVLNQNGYVNEETERRVRQAMKELNYKPNEVARALFKKTSKTVGLIVPDITNPFFPELVRAVEDVMNIYDYTVILCNSDEKVEKEREYIEVLKQKYVDGVILTTNQFAPEEVEEWDVPIVVLDRPLHERYPSVVADNYEGARLATRHLYEVGCRRIAHIQGPNHVVNAMERFRGYQDEMRALGLGDRQLVIQGNYQLKQAKEAVMAALAEHDMDGIFAGNDAMAVGALKAVQQCGLRVPDDIAIIGYDGIPLTEMTTPELSTVSQPIYEMGAMAARILIKQIEGKPLEKLHYQLPVQLVVRQSTSRRGLT”, the “soluble on expression in E. coli” value is “soluble”.

For the sequence “MGSDKIHHHHHHSNKKTVDPNPVVRDNIIHLSTAIKNVREEMMLSELVDSVSYIPLETNPNCMLGNYQRLTFSPQYIFYSNYCFDWNGQFLFRIGSQGQGACEDIYVHVADIVYLNNHFYGNASKIIEYDDRGKCTGKELSWFTQKTMDTAPVGHLVNQVCFAPAGENLMFYNFPDTVYFINTDYEFVAKRSMMPWGRKGGAPSMSGGDPRFKYTSYYKDTTLFYNFYTDTVFTVTPTSLMPRWVVELDEELRFPTRYLYEDGLLSEAFKCWESGNLENAKMIKLLDHKYMVSGVFETERFVFLSVYECMPFRELRKLPETPPLTAIYNKRTGETFAVKQVVDDLGGMKAFFPSWGAYNEKLLATIWPYKLKEFIEEEQSAGRTVAPQILNLMQRVREDDNPVLIIAHLKK”, the “soluble on expression in E. coli” value is reported as “not soluble”.

For “MSLTLISLQTFAAAWEEKLYNPMPDAEDVVLPMPCDGAMVFRKVYIPLAGPLDDYPVNIGGDNAEYGYVEQTHPAFIAGSFTTEKNAKSRYYLLAKYEMTVLQYSALTQAECPAPSNKQRLPVVSLSWMQAMEAADKYNIWLRENAADKLPKEDGVAGFLRLPTEVEWEFAARGGLNVSTAEFRDLRYPMPEGVNAYEWFAGTQSANGQLQLSGLLKPNPLGLHDMLGNVDEMMFEPFRLNKLDRQHGQAGGYVVRGGDFRTAQGELRSSLRKERNYYDAKAAATSKTTGVRLALASSTLTSRERVSSIETSWKEGHHHHHH”, the “soluble on expression in E. coli” value was “not soluble”.

On to “MEEEFSMFIMSMSNSMSSLWPAPIEMDSIDEGTENVANIASRWSTCCNIIRLHIEQMIGCEVDVAVAKSTDLGVSMTRGNSDSKLEPISTLLSTISKTIESNGEANAEFAIREIEKMNKSCETEYKIKKFHWFIDVEMFLNIKLALLDREFPPNLTVYVIGELKTLYDDYEAAKEVATNFERSSVNLRFLLCPADLKELNREIIAEKRQKMSEKEIICRFGSDKFKIKLFKKQKIGSHVTLIDSISFLGFLPEIELCRQGFLGSKRSNKLKMDITTDSKLGNKILFSLSQYLLNETKRPQTALFSFSSKPKLRGFCIMVAYESENDETSITLIQLKASLGKCLWKTLKFVNQSGEHSRPLPDDSYEQIAPIERKQLKRRLSRIERIASSVEEKRAQFEAFAREYDALDARDAFMKFTSTWQTDQGLLTAPTPFEDDNNNK”, for which the “soluble on expression in E. coli” value is recorded as “not soluble”.

With “MSLDNQLRPTLHYQAQNPHRRVLVTGATGYIGGRLITELLAAGFQVRATSRKKTSLQRFDWYEDVEAVEADLTDATELDTLFKDVDVVYYLVHSMGGKNVDFEEQEQRTAENVIQAADQAGIKQIVYLSGLHPRNRKIEELSKHMRSREKVAQILLAGQTPALILRAATIIGSGSASFEIIRHLTERLPRMIAPQWITNQIEPLAIRDVLHYLISAADLKDPVNRSCDIGCGKSYEFADLLRIYADVRGLKRHVNSVPLNLPMDKLSGLWISLVTPVPFQLSFPLAQSMAEDAVTEEHSIKDIISDPPDGFIEYREAVELALAAEFDRGVPTSWDRSWTVQQPWAGQPTDPEWAGKAVYEDVRTEDTDLRAAQVWPIIEGLGGVNGWYSAPLLWRLRGIADRLIGGPGLGGRRDPRHLKLGDRIDWWRVTEIDPPHRLVLTAEMKVDGGAWLILEVADKENGGCTYTQRAIFEPKGEGHHHHHH”, the “soluble on expression in E. coli” value was “soluble”.

Regarding “MSLHTPLEQQEIRYRKGDIIELTITDHAEKDKCFGKTTEGMGVMVSGILAPGDRVSAQIYKVKSRYLEARAIEVLEASPDRVEPVCPVFGSCGGCKWMHVSYEAQLRYKHKKVTDSLEHIGGFESPDVRPVLAAPDALHYRNKVEFSCSNMRYLLQSEIDSDQLAKPKTFALGFHAPGNFEKVLDLDTCYLAKECMNRVLNVLRDFAIERGLEPYAAKAHEGYLRNLMLRYSERHEQLMVNIVTSWYDKALMQALKERLEAAMPEQQMTLLNNVTTRKNTVATGEQEYVISGDGYVTERLGDLDFRISANSFFQTNTRQAETLYDQIIAVGGITPEDTVYDLYCGTGTITLYLARHCKQAIGIEVVESAVKDAEMNAELNGLSNTVFFQADLKNFHAMQEALEPYAKPRIIVTDPPRAGMHPKALDTMLKLQPERIVYVSCNPDNLARDGKEIAARGYRMTSAQPVDMFPQTNHIETVACFERAEGHHHHHH”, the “soluble on expression in E. coli” value is recorded as “soluble”.

As to “MGSDKIHHHHHHMKRCPNCGCRGQAAFPEHVPGQVQYGPRLHAFTTLLNVGHFIPLERVTQLTDALFGASISDGTVALNINLASERLEPFEDDLKTGLRQQAVLHADETGAKVNGKLNWFHVACFARGTLYTLHEKRGYAALEAAGVLTDFTGVVVHDAWSTYFRLPGEHALCNAHLLRELRKLDEHDRQPWAGELRRALQQVYHAQKTGTLTDEQRAVFYTRFDELVLAGLEANPVQEPVPKRRGKPKQLPGRNLALRCQQHRAAMLLFLERADVPFDNNQAERDIRMACVKRKVSGGFRSEVGGQAFCRVRSFISTLQKQGLSVWTGLVDVFRGVLPKLDFSC”, the “soluble on expression in E. coli” value is listed as “not soluble”.

Consider “EKGLEIAQERKARDEGWGDSIATMEMILKNAQGESSTRLMRLKSLEVEGDGDKGLTIFDQPRDVTGTAFLNHSHTIGADDQWLYLPALKRVKRISSRNKSGPFMGSEFAYEDLSSFEIEKYRFNHLKDEKFNGQDVFVLEQIPTDKNSGYTKQVVWLDKAHYRPLKVEFYDRKGALLKTLTFANYKQYLDKYWRAHTMAMTNHQTGKSTELNTSDLRFQTGLEENDFNKNVLKR”, for which the “soluble on expression in E. coli” value is reported as “soluble”.

Consider “MGSDKIHHHHHHMYLKISHTTEYHYDEPVQYALQRLRLTPVNLPGQTVRNWKTLVDGAAIEVSYDDQFGNRTHLVSLDADRTTLCIEANGEVETEDRAGVFGAHQSYVPLWLYARETPLTKPGKRIRELAKAAGGATELERMHALMAIIHETVRYEQGETQVGTSAEEALERGKGVCQDHAHILISAARTLGLPARYVSGYLMMEDHPQQTASHAWADVHIAGLGWVGFDPANKVCPDDRYVRIASGLCYRDAAPVSGLVHGTGTETLKVAVTVEQQGQSQAQN”, for which the “soluble on expression in E. coli” value was “not soluble”.
